Results from paper PMC11754754, “Structure and mechanism of biosynthesis of Streptococcus mutans cell wall polysaccharide” (Nature Communications, 2025).

How the values were obtained:
[1] = test system: CC(C)=CCC/C(C)=C/CC/C(C)=C/CC/C(C)=C\CC/C(C)=C\CC/C(C)=C\CC/C(C)=C\CC/C(C)=C\CC/C(C)=C\CC/C(C)=C\CC/C(C)=C\COP(=O)(O)O; assay: radiometric [3H]Glc-lipid formation, E. coli membrane fraction; type: biochemical, Streptococcus mutans; conditions: co-substrate UDP-[3H]Glc, Und-P dispersed in CHAPS, 20 mM MgCl2, pH 7.4, 37 °C
From the text: (§1) radiometric [3H]Glc-lipid formation, E. coli membrane fraction on SccN

[2] = test system: O=c1ccn([C@@H]2O[C@H](CO[P@@](=O)(O)O[P@@](=O)(O)O[C@H]3O[C@H](CO)[C@@H](O)[C@H](O)[C@H]3O)[C@@H](O)[C@H]2O)c(=O)[nH]1; assay: as above; type: biochemical, Streptococcus mutans; conditions: labelled compound (UDP-[3H]Glc), co-substrate Und-P in CHAPS, 20 mM MgCl2, pH 7.4, 37 °C
From the text: as §1

[3] = test system: CC(C)=CCC/C(C)=C/CC/C(C)=C/CC/C(C)=C\CC/C(C)=C\CC/C(C)=C\CC/C(C)=C\CC/C(C)=C\CC/C(C)=C\CC/C(C)=C\CC/C(C)=C\COP(=O)(O)O; assay: cells, lysate or membranes; conditions: co-substrate UDP-[3H]Glc, Und-P dispersed in CHAPS, 20 mM MgCl2, pH 7.4, 37 °C
From the text: (§2) radiometric [3H]Glc-lipid formation, E. coli membrane fraction on SccP

[4] = test system: O=c1ccn([C@@H]2O[C@H](CO[P@@](=O)(O)O[P@@](=O)(O)O[C@H]3O[C@H](CO)[C@@H](O)[C@H](O)[C@H]3O)[C@@H](O)[C@H]2O)c(=O)[nH]1; assay: cells, lysate or membranes; conditions: labelled compound (UDP-[3H]Glc), co-substrate Und-P in CHAPS, 20 mM MgCl2, pH 7.4, 37 °C
From the text: as §2

Substance	Km [1]	Vmax [1]	Km [2]	Vmax [2]	Km [3]	Vmax [3]	Km [4]	Vmax [4]
SccN (Streptococcus mutans UA159)	5.85 µM	5.42 µmol/min/mg	1.61 µM	3.16 µmol/min/mg	–	–	–	–
SccP (Streptococcus mutans UA159)	–	–	–	–	2.56 µM	0.96 µmol/min/mg	2.50 µM	0.93 µmol/min/mg
